In patent US12319925B2, “Methods and compositions for genomic integration” (Myeloid Therapeutics, Inc., priority 2021, dated 2025):

Key:
Jurkat cells = test: GFP expression after delivery of LINE-1 plasmid or mRNA with CMV-GFP antisense reporter; format: cell-based; conditions: 4 days post electroporation, relative to mock, FIG. 17B
Experimental: To test retrotransposition in immune cells, LINE-1 plasmid and mRNA were tested with the CMV-GFP antisense reporter cargo by electroporating into Jurkat cells, which is a T cell lymphoma line (FIG. 17A-FIG. 17B). Mock set were electroporated with a plasmid with no GFP sequence. Fold increase is reported relative to mock transfected cells.

THP-1 cells = test: Integration and expression of HER2 binder-T2A-GFP cargo after LINE-1 plasmid electroporation; format: cell-based; conditions: 3.7 kb cargo, day 6 post transfection, FIG. 18B
Text: Next, THP-1 cells (a myeloid, monocytic cell line) were electroporated with a plasmid having LINE-1 sequences and a 3.7 kb cargo encoding a chimeric HER-2 binding receptor, and a split GFP (LINE-1 plasmid Her2-Cd3z-T2A-GFPintron) (FIG. 18A). The cargo is a chimeric receptor that comprises a HER2 binding extracellular domain, a CD3z transmembrane domain, and split GFP reporter. […] Moreover, unlike CRISPR dependent technologies such as Prime editing, retrotransposition can result in integration of large genetic cargo, and, these can be delivered as a single nucleic acid construct.

B1: LINE-1 plasmid GFP: plasmid with LINE-1 ORF1, ORF2 and CMV promoter driven split GFP gene in reverse orientation in the 3′UTR (SEQ ID NO: 37) (nucleic acid)
DNA: CGGCCGCGGGGGGAGGAGCCAAGATGGCCGAATAGGAACAGCTCCGGTCTACAGCTCCCAGCGTGAGCGACGCAGAAGACGGTGATTTCTGCATTTCCATCTGAGGTACCGGGTTCATCTCACTAGGGAGTGCCAGACAGTGGGCGCAGGCCAGTGTGTGTGCGCACCGTGCGCGAGCCGAAGCAGGGCGAGGCATTGCCTCACCTGGGAAGCGCAAGGGGTCAGGGAGTTCCCTTTCCGAGTCAAAGAAAGGGGTGACGGACGCACCTGGAAAATCGGGTCACTCCCACCCGAATATTGCGCTTTTCAGACCGGCTTAAGAAACGGCGCACCACGAGACTATATCCCACACCTGGCTCGGAGGGTCCTACGCCCACGGAATCTCGCTGATTGCTAGCACAGCAGTCTGAGATCAAACTGCAAGGCGGCAACGAGGCTGGGGGAGGGGCGCCCGCCATTGCCCAGGCTTGCTTAGGTAAACAAAGCAGCAGGGAAGCTCGAACTGGGTGGAGCCCACCACAGCTCAAGGAGGCCTGCCTGCCTCTGTAGGCTCCACCTCTGGGGGCAGGGCACAGACAAACAAAAAGACAGCAGTAACCTCTGCAGACTTAAGTGTCCCTGTCTGACAGCTTTGAAGAGAGCAGTGGTTCTCCCAGCACGCAGCTGGAGATCTGAGAACGGGCAGACTGCCTCCTCAAGTGGGTCCCTGACCCCTGACCCCCGAGCAGCCTAACTGGGAGGCACCCCCCAGCAGGGGCACACTGACACCTCACACGGCAGGGTATTCCAACAGACCTGCAGCTGAGGGTCCTGTCTGTTAGAAGGAAAACTAACAACCAGAAAGGACATCTACACCGAAAACCCATCTGTACATCACCATCATCAAAGACCAAAAGTAGATAAAACCACAAAGATGGGGAAAAAACAGAACAGAAAAACTGGAAACTCTAAAACGCAGAGCGCCTCTCCTCCTCCAAAGGAACGCAGTTCCTCACCAGCAACAGAACAAAGCTGGATGGAGAATGATTTTGATGAGCTGAGAGAAGAAGGCTTCAGACGATCAAATTACTCTGAGCTACGGGAGGACATTCAAACCAAAGGCAAAGAAGTTGAAAACTTTGAAAAAAATTTAGAAGAATGTATAACTAGAATAACCAATACAGAGAAGTGCTTAAAGGAGCTGATGGAGCTGAAAACCAAGGCTCGAGAACTACGTGAAGAATGCAGAAGCCTCAGGAGCCGATGCGATCAACTGGAAGAAAGGGTATCAGCAATGGAAGATGAAATGAATGAAATGAAGCGAGAAGGGAAGTTTAGAGAAAAAAGAATAAAAAGAAATGAGCAAAGCCTCCAAGAAATATGGGACTATGTGAAAAGACCAAATCTACGTCTGATTGGTGTACCTGAAAGTGATGTGGAGAATGGAACCAA
With B1 the GFP expression (Jurkat cells) was “successful GFP expression”.

B2: LINE-1 plasmid Her2-Cd3z-T2A-GFPintron: LINE-1 plasmid with cargo encoding chimeric HER-2 binding receptor and split GFP (SEQ ID NO: 41) (nucleic acid)
DNA: CGGCCGCGGGGGGAGGAGCCAAGATGGCCGAATAGGAACAGCTCCGGTCTACAGCTCCCAGCGTGAGCGACGCAGAAGACGGTGATTTCTGCATTTCCATCTGAGGTACCGGGTTCATCTCACTAGGGAGTGCCAGACAGTGGGCGCAGGCCAGTGTGTGTGCGCACCGTGCGCGAGCCGAAGCAGGGCGAGGCATTGCCTCACCTGGGAAGCGCAAGGGGTCAGGGAGTTCCCTTTCCGAGTCAAAGAAAGGGGTGACGGACGCACCTGGAAAATCGGGTCACTCCCACCCGAATATTGCGCTTTTCAGACCGGCTTAAGAAACGGCGCACCACGAGACTATATCCCACACCTGGCTCGGAGGGTCCTACGCCCACGGAATCTCGCTGATTGCTAGCACAGCAGTCTGAGATCAAACTGCAAGGCGGCAACGAGGCTGGGGGAGGGGCGCCCGCCATTGCCCAGGCTTGCTTAGGTAAACAAAGCAGCAGGGAAGCTCGAACTGGGTGGAGCCCACCACAGCTCAAGGAGGCCTGCCTGCCTCTGTAGGCTCCACCTCTGGGGGCAGGGCACAGACAAACAAAAAGACAGCAGTAACCTCTGCAGACTTAAGTGTCCCTGTCTGACAGCTTTGAAGAGAGCAGTGGTTCTCCCAGCACGCAGCTGGAGATCTGAGAACGGGCAGACTGCCTCCTCAAGTGGGTCCCTGACCCCTGACCCCCGAGCAGCCTAACTGGGAGGCACCCCCCAGCAGGGGCACACTGACACCTCACACGGCAGGGTATTCCAACAGACCTGCAGCTGAGGGTCCTGTCTGTTAGAAGGAAAACTAACAACCAGAAAGGACATCTACACCGAAAACCCATCTGTACATCACCATCATCAAAGACCAAAAGTAGATAAAACCACAAAGATGGGGAAAAAACAGAACAGAAAAACTGGAAACTCTAAAACGCAGAGCGCCTCTCCTCCTCCAAAGGAACGCAGTTCCTCACCAGCAACAGAACAAAGCTGGATGGAGAATGATTTTGATGAGCTGAGAGAAGAAGGCTTCAGACGATCAAATTACTCTGAGCTACGGGAGGACATTCAAACCAAAGGCAAAGAAGTTGAAAACTTTGAAAAAAATTTAGAAGAATGTATAACTAGAATAACCAATACAGAGAAGTGCTTAAAGGAGCTGATGGAGCTGAAAACCAAGGCTCGAGAACTACGTGAAGAATGCAGAAGCCTCAGGAGCCGATGCGATCAACTGGAAGAAAGGGTATCAGCAATGGAAGATGAAATGAATGAAATGAAGCGAGAAGGGAAGTTTAGAGAAAAAAGAATAAAAAGAAATGAGCAAAGCCTCCAAGAAATATGGGACTATGTGAAAAGACCAAATCTACGTCTGATTGGTGTACCTGAAAG
B2 was tested, and the “genomic integration and expression of cargo” value (THP-1 cells) was “successfully integrated into the genome and showed prolonged expression”.
